Source: the supplement of paper PMC10567573

B1: SMTNL2 (parent)
chain: AFTMAENLANCERLIEVEDMMVMG

Variants of: B1
Assay: protein stability index of a GFP-peptide fusion (GPS, HEK-293T) (PSI 1-6); higher = more stable
Conditions: c terminus: a fixed tail appended
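Further: lentivirally expressed fusions sorted by FACS into six bins by GFP to DsRed ratio, PSI derived from sequencing read proportions per bin multiplied by bin number.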

Protein stability index: each site, then its substitutions
N10: A 1.84; M 2.1; C 2; F 2.53; E 2.01; V 2; G 2.79; Q 3.5; R 2.24; H 2.19; T 2.19; D 2.01; L 1.64; W 1.68; P 3.37; S 2.42; K 2.48; Y 2.07; I 1.86
E18: K 2.03; L 2.22; D 2.9; I 1.58; R 2.67; Q 2.18; N 3.43; F 3.08; P 3.06; M 1.97; G 2.52; H 2.85; S 2.01
N7: C 3.03; L 2.48; R 2.25; D 3.11; T 2.62; P 3.41; H 1.92; V 2.66; Q 2.38; M 1.67; G 2.59; E 2.21; S 2.45; Y 1.62; I 2.05; W 1.49; A 2.83; F 1.78; K 2.43
A1: E 2.1; T 1.81; G 1.74; N 2.44; D 2.47; C 1.74; I 1.76; P 3.16; K 2.58; M 1.61; H 2.62; Y 2.2; L 1.75; W 1.86; S 2.46; F 1.86; V 2.06; Q 3.22; R 2.84
L14: E 3.64; W 1.59; T 3.5; G 3.96; I 1.87; Q 3.12; F 2.62; S 3.08; K 3.89; C 3.33; V 2.47; R 3.4; N 4.2; H 3.86; M 2.34; D 4.59; A 3.33; Y 2.13; P 3.69
F2: S 3.49; H 3.48; D 4.48; R 2.4; M 2.08; L 2.27; I 2.27; Y 2.22; G 4; C 3.14; K 3.5; P 4.28; V 3.18; W 2.07; E 4.17; N 3.95; Q 3.22; T 3.88; A 3.7
T3: F 1.71; W 1.74; E 2.15; D 2.85; N 2.42; K 2.03; V 1.79; S 2.12; C 1.85; L 1.77; Q 2.13; G 2.91; R 2.11; A 2.06; M 1.96; P 3.15; Y 2.06; I 1.72; H 2.24
I15: W 2.8; E 4.99; A 4; L 2.82; R 3.89; V 3.42; P 4.02; Y 2.95; G 3.77; Q 4.4; T 4.25; S 3.6; C 3.64; F 3.39; N 3.94; H 3.95; D 4.49; M 3; K 3.9
A5: L 2.48; S 2.55; I 3.19; G 3.11; Y 2.71; W 1.81; K 2.51; T 2.83; N 2.7; D 3.78; M 2.58; V 2.03; F 2.07; Q 2.05; E 4.16; R 1.93; H 2.01; P 3.44; C 2.27
L8: M 3.3; A 4.35
